Substitutions are numbered along the chain they refer to. Names and notes keep the numbering of the source.
B1: H1H136P (antibody, human IgG1, V domains shown)
VH: EVQLVESGGGLVQPGGSLRLSCAASGFTFSSYDMSWVRQAPGKGLEWVSGISGSGDSTYYAGSVKGRFTISRDNSKNTLYLQMNSLRAEDTAVYYCAYDYSNYWDHYGMDVWGQGTTVTVSS
VL: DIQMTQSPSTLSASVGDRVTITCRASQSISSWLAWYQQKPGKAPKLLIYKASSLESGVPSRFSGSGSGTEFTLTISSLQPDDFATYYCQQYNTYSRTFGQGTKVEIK
notes: Human IgG1 Fc (H1H)
B2: H1H157P (antibody, human IgG1, V domains shown)
VH: QVQLVESGGGVVQPGRSLRLTCKASGFTFSIYGINWVRQASGKGLDWVAVISDDGSDKKYADSVKGRFTISRDNSKNTVYLEMSRLRSEDTAVYFCAKDRFTGNHYYGMDVWGQGTTVTVSS
VL: DIQMTQSPSSLSASVGDRVSITCRASQDISDYLAWFQQKPGKAPKSLIYAASILQNGVPSRFSGSGSGTDFTLTISSLQPEDFALYYCHQYNRFPWTFGQGTKVEIK
notes: Human IgG1 Fc (H1H)
B3: H1H158P (antibody, human IgG1, V domains shown)
VH: QVQLVESGGGVVQPGGSLRLSCAASGFTFSIYGIHWVRQAPGKGLEWVAVISDDGSNKKYADSVKGRFTISRDNSKNTLYLQMNSLRAEDTAIFYCAKDRITGTHYYGMDVWGQGTTVTVSS
VL: B2 VL with D31N, I53S, N56S, R61K, T69I, D70E, A84S, L85T
notes: Human IgG1 Fc (H1H)
B4: H1H0085N (antibody, V domains shown)
VH: EVQLVESGGGLVQPGRSLRLSCAASGFTFDDYAMHWVRQAPGKGLEWVSGINWNSDKIAYADSVKGRFTISRDNAENSLFLQMNSLRPEDTALYYCVKRGDFWTEYYDYWGQGTLVTVSS
VL: DIVMTQSPLSLPVTPGEPASISCRSSQSLLHSNGYNYLDWYLQKPGQSPHLLIYLVSTRASGVPDRFSGSGSGTDFTLKISRVEAEDVGVYYCIQALQTPWTFGQGTKVEIK
notes: Tested in human IgG1 Fc format (H1H prefix); first obtained as H1M (mouse IgG1 Fc) from a hybridoma; also called H1M085N; H1H085N
B5: H1H086N (antibody, human IgG1, V domains shown)
VH: B4 VH with E105D
VL: B4 VL with I94M
notes: Tested in human IgG1 Fc format (H1H); also called H1M086N
B6: H1H089N (antibody, human IgG1, V domains shown)
VH: B4 VH with E105D
VL: B4 VL with Y35H, T58N
notes: Tested in human IgG1 Fc format (H1H); also called H1M089N
B7: H1H159P (antibody, human IgG1, V domains shown)
VH: EVQLVESGGGLVQPGGSLRLSCAASRFTFTNYWMSWVRQAPGKGLEWVAKIKQDGSEKYYLDSVKDRFTISRDNAKNSLYLQMNSLRAEDTAVYYCASSSSWYDYYYGMDVWGHGTTVTVSS
VL: EIVLTQSPDFQSVTPKEKVTITCRASQSIGTNLHWYQQRPDQSPKLLIKFASQSFSGVPSRFSGSGSGTDFTLTINSLEAEDAATYYCHQTNFLPHTFGGGTKVEIKR
notes: Human IgG1 Fc (H1H)
B8: H1H169P (antibody, human IgG1, V domains shown)
VH: B7 VH with T30S, N31T, S100I, S101T
VL: EIVLTQSPDFQSVTPKEKVTITCRASQSIGSNLHWYQQKPDQSPNLLIKFASQSFSGVPSRFSGSGSGTDFTLTINSLEAEDAATYYCHQTNFLPHTFGGGTKVEIK
notes: Human IgG1 Fc (H1H)
B9: H1H155P (antibody, human IgG1, V domains shown)
VH: QVQLVESGGGVVQPGRSLRLSCAASGFTFSIYGMHWVRQAPGKGLEWVTVISDDGSKKYYVDSVKGRFTLSRDNSKNTLYLQMNSLRAEDTAVYYCARDRITGTNWYGMDVWGQGTTVTVSS
VL: DIQMTQSPSSLSASVGDRVTITCRASQDISNYLAWFQQKPGKAPKSLIFAASSLQSGGPSKFSGSGSGTDFTLTISSLQPEDFATYYCQQYNRYPFTFGPGTKVDIK
notes: Human IgG1 Fc (H1H)
B10: H1H142P (antibody, human IgG1, V domains shown)
VH: QVQLQESGPGLVKPSQTLSLTCTVSGGSISSGDYYWNWIRQYPGKGLELIGYIYYSGITYYNPSLKSRLTISLDTSKNQFSLKLSSVTAADTAVYYCARDRVELRAFDIWGQGTMVTVSS
VL: DIQMTQSPSSLSASIGDRITISCQASQDINNYLNWYQQKPGKAPKLLIYDASNLETGIPSRFSGSGSGTDFTFTISGLQPEDIATYYCQHYDSLPLTFGQGTRLEIK
notes: Human IgG1 Fc (H1H)
B11: H1H153P (antibody, human IgG1, V domains shown)
VH: QVQLVESGGGVVQPGKSLRLSCAASGFTFSIYGMNWVRQAPGKGLDWVAVISDDGSNKDYVDSVRGRFTISRDNSKNTLYLQMNSLSAEDTAVYYCAKDRITGTHYYGLDVWGQGTTVTVSS
VL: DIQMTQSPSSLSASVGDRITITCRASQDIANYLAWFQQKPGNAPTSLIYAASILQSGVPSKFSGSGSGTDFTLTITSLQPEDFASYYCQQYNRKPWTFGRGTKVEIK
notes: Human IgG1 Fc (H1H)
B12: H1H171P (antibody, human IgG1, V domains shown)
VH: B11 VH with K16R, A40G, L109M
VL: B11 VL
notes: Human IgG1 Fc (H1H)
B13: H1H145P (antibody, human IgG1, V domains shown)
VH: EVQLVESGGGVVQPGGSLRLSCAASGFTFDDYAMHWVRQAPGKGLEWVSLISGDGGSTYYADSVKGRFTISRDNSKNSLYLQMNSLRTEDTALYYCAKNYDSSGYYYPYYYYYGMDVWGQGTTVTVSS
VL: not shown
notes: Human IgG1 Fc (H1H)
B14: H1H151P (antibody, human IgG1, V domains shown)
VH: QVQLQESGPGLVNPSQTLSLTCTVSGGSINSGDYYWSWVRQHPGKGLEWIGYIYYSGSTYYNPSLKSRVTISVDTSKNQFSLKLSSVTVADTAVYYCARVGYSKGYFDSWGQGTLVTVSS
VL: DIQMTQSPSTLSASVGDRVTITCRASESISSWLAWYQQKPGKAPKVLIYDASSLESGVPSRFSGSGSGTEYTLTISSLQPDDFASYYCQQYKSYWTFGQGTKVEIK
notes: Human IgG1 Fc (H1H)
B15: H1H161P (antibody, human IgG1, V domains shown)
VH: QVQLVESGGGVVQPGRSLRLSCAASGFTFSNYGMYWVRQAPGKGLEWVTFISYDGSNKNYVDSMKGRFTISRDNSKNTLYLQMNSLRVEDTAVYYCAKDRISGTPWYGMDVWGQGTTVTVSS
VL: DIQMTQSPSSLSASVGDRVTITCRASQDIADYLAWFQQKPGKAPKSLIFAASSLESWVPLKFSGSGSGTDFTLTISSLQPEDFATYYCQQYSRFPITFGQGTKVEIK
notes: Human IgG1 Fc (H1H)
B16: H1H163P (antibody, human IgG1, V domains shown)
VH: B15 VH with Y35H, F50L, S52E, Y53H, M64V, S102T
VL: B15 VL with S92N, K103R, V104L
notes: Human IgG1 Fc (H1H)

Each binder was assayed against T1, human monomeric EGFR (EGFR.mmh) (human, UniProt P00533 25-647) (assay: SPR 37C, mAb captured by anti-human Fc, EGFR.mmh analyte).
T1 construct: Soluble monomeric EGFR construct
Procedure: (§1) Different concentrations of human monomeric (EGFR.mmh; SEQ ID NO:386) and dimeric (EGFR.mFc; SEQ ID NO:387) proteins were injected over the anti-EGFR monoclonal antibody captured surface at a flow rate of 50 μI/min. Antibody-antigen association was monitored for 4-5 minutes while dissociation of antigen from the captured monoclonal antibody surface was monitored for 10 min. Kinetic association (kₐ) and dissociation (kd) rate constants were determined by processing and fitting the data to a 1:1 binding model using Scrubber 2.0 curve fitting software.

binding result | Kd [nM] | koff [s⁻¹] | kon [M⁻¹ s⁻¹] | t1/2 [h] | Binder
no binding |  |  |  |  | B1
no binding |  |  |  |  | B2
 | 5.9 | 0.000773 | 131000 | 0.25 | B3
 | 15.5 | 0.00185 | 119000 | 0.1 | B4
 | 1.31 | 0.000708 | 540000 | 0.267 | B5
 | 21.8 | 0.00683 | 313000 | 0.0333 | B6
 | 0.682 | 0.000325 | 476000 | 0.6 | B7
 | 1.31 | 0.000869 | 665000 | 0.217 | B8
 | 0.962 | 0.000169 | 176000 | 1.13 | B9
 | 4.35 | 0.000689 | 158000 | 0.283 | B10
 | 3.09 | 0.000235 | 76100 | 0.817 | B11
 | 14.2 | 0.00113 | 79400 | 0.167 | B12
 | 1.43 | 0.000195 | 137000 | 0.983 | B13
 | 8.4 | 0.00113 | 134000 | 0.167 | B14
 | 0.655 | 0.000321 | 489000 | 0.6 | B15
 | 0.834 | 0.000426 | 511000 | 0.45 | B16

Each binder was assayed against T2, EGFR on A431 epidermoid carcinoma cells (human, UniProt P00533 25-1210) (assay: cell-based or functional assay).

ADCC EC50 [Molar] | Binder | Maximum Cell Killing (%)
1.49e-09 | B1 | 27
2.27e-13 | B2 | 36
2.32e-12 | B3 | 28
3.7e-13 | B4 | 35
2.91e-13 | B5 | 25
5.83e-12 | B6 | 53
2.69e-09 | B7 | 60
4.81e-09 | B8 | 27
1.67e-11 | B9 | 30
1.19e-12 | B10 | 34
2.65e-11 | B11 | 31
8.94e-13 | B12 | 27
 | B13 | 0
5.48e-09 | B14 | 68
9.8e-12 | B15 | 38
2.96e-10 | B16 | 48

Biological target: T2, EGFR on A431 epidermoid carcinoma cells
Assay: cell-based or functional assay
Remark: another data set of the same source

IC50 of A431 Proliferation [Molar] | Binder
1.65e-09 | B4
5.46e-10 | B5
2.3e-09 | B6
5.47e-10 | B10
2.77e-10 | B14

What follows are binders tested against T3, human dimeric EGFR (EGFR.mFc) (human) (assay: SPR 37C, mAb captured by anti-human Fc, EGFR.mFc analyte).
T3 construct: Soluble dimeric EGFR construct
Procedure: as §1

binding result | Kd [nM] | koff [s⁻¹] | kon [M⁻¹ s⁻¹] | t1/2 [h] | Binder
no binding |  |  |  |  | B1
no binding |  |  |  |  | B2
 | 0.0241 | 9.84e-06 | 408000 | 19.6 | B3
 | 0.12 | 4.05e-05 | 336000 | 4.77 | B4
 | 0.00598 | 1.13e-05 | 1.9e+06 | 17 | B5
 | 0.0301 | 4.49e-05 | 1.49e+06 | 4.28 | B6
 | 0.00344 | 5.63e-06 | 1.64e+06 | 34.2 | B7
 | 0.00736 | 1.69e-05 | 2.29e+06 | 11.4 | B8
 | 0.321 | 0.000106 | 329000 | 1.82 | B9
 | 0.0332 | 1.2e-05 | 361000 | 16.1 | B10
 | 0.0351 | 8.23e-06 | 234000 | 23.4 | B11
 | 0.103 | 3.48e-05 | 339000 | 5.53 | B12
 | 0.232 | 5.86e-05 | 252000 | 3.28 | B13
 | 0.00159 | 2.76e-06 | 1.73e+06 | 69.8 | B15
 | 0.00117 | 2.12e-06 | 1.81e+06 | 90.8 | B16

Reference: US20180036405A1 (Regeneron, published 2018)
